Data reported in paper PMC12631878, “Single‐Cell Transcriptome Analysis Reveals That Hmga2 Regulates Neuroinflammation and Retinal Function by Modulating Müller Cell Autophagy Through PI3K/AKT Signaling Following MCAO‐Induced Retinal Ischemia” (Advanced Science, 2025).

Target: PI3K (protein used in biolayer interferometry) (UniProt P26450 1-724)
Experiment: BLI; biolayer interferometry; format and conditions not told in the main text (Figure S4)

PI3K (protein used in biolayer interferometry), sequence (P26450 2-724): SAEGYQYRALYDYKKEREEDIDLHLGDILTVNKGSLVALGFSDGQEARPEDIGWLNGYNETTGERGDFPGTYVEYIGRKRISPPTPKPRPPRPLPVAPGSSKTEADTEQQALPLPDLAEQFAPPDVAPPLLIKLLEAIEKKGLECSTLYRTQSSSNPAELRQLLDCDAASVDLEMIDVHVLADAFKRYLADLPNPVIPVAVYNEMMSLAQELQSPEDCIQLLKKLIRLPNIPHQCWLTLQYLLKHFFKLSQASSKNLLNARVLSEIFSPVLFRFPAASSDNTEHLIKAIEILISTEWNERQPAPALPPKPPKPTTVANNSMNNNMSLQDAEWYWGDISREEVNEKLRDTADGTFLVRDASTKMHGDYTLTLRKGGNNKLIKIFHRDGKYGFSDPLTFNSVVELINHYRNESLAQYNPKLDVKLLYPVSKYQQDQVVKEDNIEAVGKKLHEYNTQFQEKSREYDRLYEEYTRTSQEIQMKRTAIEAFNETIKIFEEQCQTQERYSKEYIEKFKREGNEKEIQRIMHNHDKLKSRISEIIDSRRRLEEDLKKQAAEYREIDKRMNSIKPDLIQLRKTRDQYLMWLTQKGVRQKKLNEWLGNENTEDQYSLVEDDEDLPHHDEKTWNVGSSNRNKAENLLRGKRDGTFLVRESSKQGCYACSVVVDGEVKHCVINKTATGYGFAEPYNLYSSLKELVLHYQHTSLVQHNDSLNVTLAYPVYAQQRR

- Kd: 12 nM
B1: Hmga2 (protein used in biolayer interferometry) (natural protein, UniProt P52927 1-108, looked up)
chain: MSARGEGAGQPSTSAQGQPAAPVPQKRGRGRPRKQQQEPTCEPSPKRPRGRPKGSKNKSPSKAAQKKAETIGEKRPRGRPRKWPQQVVQKKPAQETEETSSQESAEED
notes: Hmga2 as used in the biolayer interferometry assay; The main text has no methods for the BLI experiment
